Measured values from PMC10397247.
Blank lines part the entries; values can stand above or below the binder they belong to.

Assays:
Test in all cases: two-hybrid library CCNG1;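 note: natural log of median RNA to DNA barcode read ratio; higher means stronger binding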
4H932-bH = biological target: T1, 4H932-bH
T1 chain: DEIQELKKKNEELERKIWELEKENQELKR

O1-bP = biological target: T2, O1-bP
T2 chain: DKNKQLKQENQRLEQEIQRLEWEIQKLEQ

4H949-bH = biological target: T3, 4H949-bH
T3 chain: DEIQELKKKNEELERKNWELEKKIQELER

4H741-bA = biological target: T4, 4H741-bA
T4 chain: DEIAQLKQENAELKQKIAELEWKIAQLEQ

4H2473-bA = biological target: T5, 4H2473-bA
T5 chain: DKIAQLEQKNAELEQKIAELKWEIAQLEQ

4H2223-bA = biological target: T6, 4H2223-bA
T6 chain: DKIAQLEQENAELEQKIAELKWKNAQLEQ

4H2915-bA = biological target: T7, 4H2915-bA
T7 chain: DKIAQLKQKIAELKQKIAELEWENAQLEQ

4H2588-bA = biological target: T8, 4H2588-bA
T8 chain: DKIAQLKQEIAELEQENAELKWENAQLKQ

4H2438-bA = biological target: T9, 4H2438-bA
T9 chain: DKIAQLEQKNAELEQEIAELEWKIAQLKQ

4H40-bA = biological target: T10, 4H40-bA
T10 chain: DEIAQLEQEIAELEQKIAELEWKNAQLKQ

4H319-bA = biological target: T11, 4H319-bA
T11 chain: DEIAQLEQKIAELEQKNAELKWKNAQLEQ

4H182-bA = biological target: T12, 4H182-bA
T12 chain: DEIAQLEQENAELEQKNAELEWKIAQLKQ

4H2134-bA = biological target: T13, 4H2134-bA
T13 chain: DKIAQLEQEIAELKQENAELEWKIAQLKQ

4H2503-bA = biological target: T14, 4H2503-bA
T14 chain: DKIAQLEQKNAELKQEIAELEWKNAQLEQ

4H348-bA = biological target: T15, 4H348-bA
T15 chain: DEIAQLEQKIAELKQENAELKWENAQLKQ

4H2692-bA = biological target: T16, 4H2692-bA
T16 chain: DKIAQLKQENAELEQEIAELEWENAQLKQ

4H2717-bA = biological target: T17, 4H2717-bA
T17 chain: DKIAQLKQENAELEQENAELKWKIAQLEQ

4H492-bA = biological target: T18, 4H492-bA
T18 chain: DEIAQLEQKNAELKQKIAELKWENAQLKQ

4H477-bA = biological target: T19, 4H477-bA
T19 chain: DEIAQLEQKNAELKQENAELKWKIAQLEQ

4H3277-bA = biological target: T20, 4H3277-bA
T20 chain: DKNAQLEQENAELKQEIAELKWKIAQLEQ

4H2143-bA = biological target: T21, 4H2143-bA
T21 chain: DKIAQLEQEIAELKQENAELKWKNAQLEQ

4H3057-bA = biological target: T22, 4H3057-bA
T22 chain: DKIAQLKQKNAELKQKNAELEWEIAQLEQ

4H2839-bA = biological target: T23, 4H2839-bA
T23 chain: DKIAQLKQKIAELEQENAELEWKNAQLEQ

- interaction score (4H932-bH): -0.509
- interaction score (O1-bP): -1.96
- interaction score (4H949-bH): -0.517
Binder: DEIQELKKKNEELERKIWELEKENQELKR [4H932-bH]

- interaction score (4H741-bA): -0.573
- interaction score (4H2473-bA): -0.132
- interaction score (4H2223-bA): -0.693
- interaction score (4H2915-bA): 0.668
- interaction score (4H2588-bA): 0.365
- interaction score (4H2438-bA): -0.622
- interaction score (4H40-bA): -1.06
- interaction score (4H319-bA): -0.41
- interaction score (4H182-bA): -0.0793
- interaction score (4H2134-bA): -0.497
- interaction score (4H2503-bA): -0.357
- interaction score (4H348-bA): -1.35
- interaction score (4H2692-bA): 0.136
- interaction score (4H2717-bA): 0.261
- interaction score (4H492-bA): -0.651
- interaction score (4H477-bA): -0.804
- interaction score (4H3277-bA): -0.0929
- interaction score (4H2143-bA): -0.647
- interaction score (4H3057-bA): 2.13
- interaction score (4H2839-bA): 0.49
Binder: DEIAQLEQENAELEQKNAELEWKIAQLKQ [4H182-bA]
